As usually defined, the Km is the substrate concentration at which the rate is half of its maximum. By kcat is commonly meant the number of substrate molecules converted per active site and unit of time at saturation. Usually stoichiometry N stands for a count of units in the complex or per binding partner.

Results on 2 substances are retold here after article PMC6920932.

One series has as its system BrCCCBr. Briefly: purified protein. Conditions: 100 mM glycine buffer pH 8.6, 37 °C, cooperativity and partial substrate inhibition.
The next series deals with N#CCCCBr. Briefly: purified protein. Particulars: 100 mM glycine buffer pH 8.6, 37 °C, substrate inhibition.
Series [1] addresses haloalkane dehalogenase DmxA wild type from Marinobacter sp. ELB17 (Marinobacter sp. ELB17). Briefly: SEC; gel filtration chromatography of purified DmxA wt; conditions not told in the text shown. A general note: In gel filtration, larger molecules generally elute earlier.
The target is the same in series [2]. Briefly: not stated; DmxA wt in solution; the discussion does not say which experiment gave the share of dimer.
For series [3] the target is unchanged. Briefly: native gel or EMSA; native polyacrylamide gel, 4 °C, 115 V, Coomassie stain; reduced (10 mM DTT, degassed, nitrogen) and non-reduced samples compared; LinB (34 kDa, monomer) and DbjA (66 kDa, dimer) as size standards. Background: A gel shift assay detects complexes by their altered migration in electrophoresis.

Some results are limits rather than exact numbers.

For DmxA (Marinobacter sp. ELB17), the Michaelis-Menten constant (Km) with BrCCCBr came out at 30 µM; in the series with N#CCCCBr it was 670 µM. In addition, the kcat was found to be 2.61 s⁻¹ in the series with BrCCCBr and 1.89 s⁻¹ in the series with N#CCCCBr.
On to “haloalkane dehalogenase DmxA wild type from Marinobacter sp. ELB17 (enzyme)”, for which the stoichiometry N in series [1] and in series [3] was 2 throughout. For the same substance, the percent of the enzyme present as a dimer in series [2] is less than 30%.
